{
  "source": "paper PMC10698194",
  "molecular_target": "mouse KOR-EGFP (mouse) (UniProt P33534)",
  "sequence (P33534 whole entry)": "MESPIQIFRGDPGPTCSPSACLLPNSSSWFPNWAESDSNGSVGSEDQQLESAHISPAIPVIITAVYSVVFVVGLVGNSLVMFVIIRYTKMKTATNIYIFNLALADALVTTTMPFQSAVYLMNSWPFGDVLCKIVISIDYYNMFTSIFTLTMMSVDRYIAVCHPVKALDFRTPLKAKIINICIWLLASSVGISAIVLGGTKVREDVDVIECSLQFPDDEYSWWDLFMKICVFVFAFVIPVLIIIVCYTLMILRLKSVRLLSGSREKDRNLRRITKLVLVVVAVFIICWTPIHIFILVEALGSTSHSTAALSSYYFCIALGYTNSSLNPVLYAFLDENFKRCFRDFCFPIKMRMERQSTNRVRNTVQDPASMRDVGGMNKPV",
  "data": [
    {"substance": "dynorphin (dyn) A_(1-13) (peptide)", "values": [
      {"measurement": "β-arrestin-2 recruitment (BRET), EC50", "value": 0.031, "unit": "µM"}
    ]}
  ]
}
